Patent US5910570A, “Cloned DNA encoding a UDP-GalNAc: polypeptide N-acetylgalactosaminy-ltransferase” (Pharmacia & Upjohn Company, priority 1997, dated 1999)
One block for each molecule: values may come before it.

Columns and labels:
[1] = target: T1, bovine colostrum GalNAc-transferase (Bos taurus, UniProt Q07537); test: Transfer of N-acetylgalactosamine to protein acceptors; assay type: biochemical; conditions: for Product formed, Native: native acceptor 65 μM; for Product formed, Native / Product formed, Reduced and carboxymethylated: enzyme approx. 65 mU/ml; for Product formed, Reduced and carboxymethylated: reduced and carboxymethylated acceptor 65 μM
T1 construct: from tissue; host or cells: bovine colostrum
T1 sequence (Q07537 41-559 limits assumed): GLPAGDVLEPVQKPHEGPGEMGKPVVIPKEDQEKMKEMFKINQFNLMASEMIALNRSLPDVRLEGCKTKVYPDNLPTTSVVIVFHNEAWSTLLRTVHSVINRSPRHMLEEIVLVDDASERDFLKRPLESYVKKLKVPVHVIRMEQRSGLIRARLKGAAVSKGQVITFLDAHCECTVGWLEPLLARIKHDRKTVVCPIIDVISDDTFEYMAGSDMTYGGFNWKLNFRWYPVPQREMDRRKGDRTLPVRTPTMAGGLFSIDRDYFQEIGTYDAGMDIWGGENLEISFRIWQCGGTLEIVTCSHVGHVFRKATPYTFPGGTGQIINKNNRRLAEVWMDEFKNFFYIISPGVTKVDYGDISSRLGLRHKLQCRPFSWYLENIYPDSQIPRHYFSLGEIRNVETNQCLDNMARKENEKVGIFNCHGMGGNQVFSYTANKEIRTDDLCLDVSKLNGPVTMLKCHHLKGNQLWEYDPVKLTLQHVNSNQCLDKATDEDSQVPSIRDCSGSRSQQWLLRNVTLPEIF
Description: The above conclusions and the predictions of the specificity algorithm are validated experimentally by studying the ability of bovine colostrum GalNAc-transferase to transfer N-acetylgalactosamine to a variety of acceptors, both native proteins and synthetic acceptor peptides. The transfer of N-acetylgalactosamine to protein acceptors is assayed as described by Elhammer and Kornfeld, 1986, with minor modifications. The concentration of UDP-GalNAc is saturating in all assays; a Km of 8 μM is reported for bovine colostrum GalNAc-transferase (Elhammer and Kornfeld, 1986).
The transfer of N-acetylgalactosamine to protein acceptors was assayed
under standard conditions (see Material and Methods). The acceptor
concentration was 65 μM, the enzyme concentration approximately 65
mU/ml and assay time was 60 minutes. The transfer to both native and
reduced-carboxymethylated acceptors was assayed.

bovine apomucin = test: Specific activity of the purified enzyme preparation using bovine apomucin as acceptor; assay type: biochemical
Description: The standard assay for UDP-GalNAc:polypeptide, N-acetylgalactosaminyltransferase activity during purification contained the following components in a final volume of 80 μl: 50 mM Imidazole pH 7.2, 10 mM MnCl2, 0.5% Triton X-100, 15 μM UDP-GalNAc, UDP[1-^3 H-]GalNAc (27,000 cpm/assay), 0.15 mg/ml apomucin and varying amounts of enzyme (see individual experiments). The reaction mixture is incubated at 37° C. for 5-10 minutes (see individual experiments) and the reaction product is TCA precipitated and radioactivity measured as described. Assays for activity in lysates from Spodoptera frugiperda cell line 9 (hereinafter referred to as Sf9 cells) are carried out as described by Thomsen et al., (1990).

Product formed, Native ([1]; 60 minutes): < 0.1 nmol/min/mg
Product formed, Reduced and carboxymethylated ([1]; 60 minutes): 3.3 nmol/min/mg
B1: Bovine rhodanese: cytoplasmic protein with predicted glycosylation sites, tested as acceptor (protein)
chain: VHQVLYRALVSTKWLAESVRAGKVGPGLRVLDASWYSPGTREARKEYLERHVPGASFFDIEECRDKASPYEVMLPSEAGFADYVGSLGISNDTHVVVYDGDDLGSFYAPRVWWMFRVFGHRTVSVLNGGFRNWLKEGHPVTSEPSRPEPAIFKATLNRSLLKTYEQVLENLESKRFQLVDSRAQGRYLGTQPEPDAVGLDSGHIRGSVNMPFMNFLTEDGFEKSPEELRAMFEAKKVDLTKPLIATCRKGVTACHIALAAYLCGKPDVAIYDGSWFEWFHRAPPETWVSQGKGGKA

Product formed, column Reduced and carboxymethylated (acceptor not reduced and carboxymethylated in this experiment) ([1]; footnote a: not reduced and carboxymethylated, 65 μM, 60 minutes): 21.3 nmol/min/mg
Product formed, Native ([1]; 60 minutes): 22.2 nmol/min/mg
B2: Myelin basic protein: efficient acceptor for GalNAc-transferase, included as a positive control (protein, UniProt P02686 1-304, looked up)
Myelin basic protein: MGNHAGKRELNAEKASTNSETNRGESEKKRNLGELSRTTSEDNEVFGEADANQNNGTSSQDTAVTDSKRTADPKNAWQDAHPADPGSRPHLIRLFSRDAPGREDNTFKDRPSESDELQTIQEDSAATSESLDVMASQKRPSQRHGSKYLATASTMDHARHGFLPRHRDTGILDSIGRFFGGDRGAPKRGSGKDSHHPARTAHYGSLPQKSHGRTQDENPVVHFFKNIVTPRTPPPSQGKGRGLSLSRFSWGAEGQRPGFGYGGRASDYKSAHKGFKGVDAQGTLSKIFKLGGRDSRSGSPMARR

transfer rate, times slower as compared to myelin basic protein ([1]; denatured (reduced and carboxymethylated) acceptor): 35 times
Product formed, Native ([1]; 60 minutes): < 0.1 nmol/min/mg
Product formed, Reduced and carboxymethylated ([1]; 60 minutes): 0.6 nmol/min/mg
B3: Subtilisin: bacterial protein tested as acceptor (protein, UniProt P00782 108-382, looked up)
Subtilisin BPN': AQSVPYGVSQIKAPALHSQGYTGSNVKVAVIDSGIDSSHPDLKVAGGASMVPSETNPFQDNNSHGTHVAGTVAALNNSIGVLGVAPSASLYAVKVLGADGSGQYSWIINGIEWAIANNMDVINMSLGGPSGSAALKAAVDKAVASGVVVVAAAGNEGTSGSSSTVGYPGKYPSVIAVGAVDSSNQRASFSSVGPELDVMAPGVSIQSTLPGNKYGAYNGTSMASPHVAGAAALILSKHPNWTNTQVRSSLENTTTKLGDSFYYGKGLINVQAAAQ

B4: GalNAcTs: secreted, soluble recombinant form of bovine GalNAc-transferase expressed in Sf9 cells (protein)
chain: DPSPALEPVQKPHEGPGEMGKPVVIPKEDQEKMKEMFKINQFNLMASEMIALNRSLPDVRLEGCKTKVYPDNLPTTSVVIVFHNEAWSTLLRTVHSVINRSPRHMLEEIVLVDDASERDFLKRPLESYVKKLKVPVHVIRMEQRSGLIRARLKGAAVSKGQVITFLDAHCECTVGWLEPLLARIKHDRKTVVCPIIDVISDDTFEYMAGSDMTYGGFNWKLNFRWYPVPQREMDRRKGDRTLPVRTPTMAGGLFSIDRDYFQEIGTYDAGMDIWGGENLEISFRIWQCGGTLEIVTCSHVGHVFRKATPYTFPGGTGQIINKNNRRLAEVWMDEFKNFFYIISPGVTKVDYGDISSRLGLRHKLQCRPFSWYLENIYPDSQIPRHYFSLGEIRNVETNQCLDNMARKENEKVGIFNCHGMGGNQVFSYTANKEIRTDDLCLDVSKLNGPVTMLKCHHLKGNQLWEYDPVKLTLQHVNSNQCLDKATDEDSQVPSIRDCSGSRSQQWLLRNVTLPEIF
specific activity of the purified enzyme preparation (bovine apomucin): approximately 2,160 U/mg protein
